Measurements reported in patent US20240408167A1, “COMPOSITION FOR TREATING OCULAR DISEASES CONTAINING PEPTIDE” (Encuragen Inc., priority 2023, published 2024).
Several values for one entry are separate records, joined by “and”; a condition that tells them apart may be missing. Equal entries are not always repeated.

Legend:
BALB/3T3 clone A31 cells = assay: cells; format: cell-based
Experimental: To evaluate the phototoxicity of (PEG)-BHD1028, the potential phototoxicity of (PEG)-BHD1028 was measured in the BALB/3T3 clone A31 cells after UV exposure. The test substance and the positive control group (chlorpromazine hydrochloride; CPZ) were dissolved in a Hank's Balanced Salt Solution (HBSS) and then diluted with a Hank's Balanced Salt Solution (HBSS). The cells were trypsinized and counted. Thereafter, 1×10^4 cells per well were seeded in a 96-well plate and cultured for approximately 24 hours before treating the test samples. One hour after the sample treatment, the plate was irradiated with a UV irradiation system (UVA, 365 nm). After UV irradiation, the plate was incubated for 24 hours. The cell viability of the cultured cells was confirmed by measuring the absorbance at 540 nm using the neutral red staining method.

[1] = system: apoptotic cells in cornea and conjunctiva; assay: Apoptotic cells by TUNEL assay, EDE mouse model; format: in vivo; conditions: 0.001%, 0.01%, 0.1%
Experimental: The eyes and appendages from each group were excised, fixed in the modified Davidson's solution, and embedded in paraffin, and the tissue sections were TUNEL-stained. In each section, the degree of apoptosis in the cornea and conjunctiva was measured using ZEN (Zeiss, Oberkochen, Germany) and Image J v1.51j8 (NIH, Bethesda, MD, USA) software programs.
As DED progresses, the epithelium of the anterior segment of the eye undergoes pathological deformations, including functional damages and structural changes such as abnormal tear sebum secretion and pathogenic cell death. Apoptotic cells that were present in an equal area of the cornea and conjunctiva of one eye per group were quantified by the TUNEL assay.

[2] = Stability according to pH, HPLC residual amount at 40±2° C.; format: physicochemical; conditions: for Residual amount: 40±2° C.
Experimental: To evaluate the stability of eye drops according to pH, a 10 mM pH buffer [10 mM sodium phosphate buffer+0.02% sodium azide (pH 5.5, pH 6.0, pH 6.5, pH 7.0) or a 10 mM PBS+WELGENE fresh media 10×PBS (pH 7.4)] was mixed with (PEG)-BHD1028 and the resulting mixture was incubated at 40±2° C., and then the stability was evaluated through an HPLC analysis. As a result of the evaluation, there was no significant difference in the residual amount between the formulation prepared at pH 6.5, which was set as the target pH of the eye drops, and the formulation prepared at 7.0, which was the average pH of the eyes, as shown in Table 4 below.

[3] = Osmotic pressure of trehalose-only formulations; format: physicochemical; conditions: trehalose-only formulation
Experimental: The osmotic pressure of the trehalose-only formulations according to the (PEG)-BHD1028 content (see Table 5) and the osmotic pressure of the trehalose-mannitol composite formulations according to the (PEG)-BHD1028 content (see Table 6) were measured, and reflecting the experimental results, the osmolarity including the 0.5% (PEG)-BHD1028 concentration was adjusted to about 300 mOsm/kg.

rabbit DED model [4] = assay: Tear film break-up time (TBUT), rabbit DED model; format: in vivo
Excerpt: The rabbit DED model was induced by locally administrating 0.1% benzalkoniumchloride (BAC) drops (Sigma, St. Louis, MO, USA) twice a day (8 a.m. and 4 p.m.). Before the BAC treatment, the control group (baseline, naive) underwent standard dry eye clinical tests such as the Schirmer tear test (STT), TBUT, and corneal staining score (CSS) test. […] The test substance was locally applied bis in die (BID) to both eyes.
TBUT is the time elapsed between the last blink and the first appearance of fluorescein decomposition, and it is an indicator of tear film stability. […] The measurement was repeated three times to obtain an average value.
Tear film instability is an important pathological characteristic of DED and the most common indicator of tear quality.

rabbit DED model [5] = assay: Corneal fluorescein staining (CFS) score, rabbit DED model; format: in vivo; conditions: for dynamic slope of the CFS score change: from Day 1 to Day 10
Experimental: The rabbit DED model was induced by locally administrating 0.1% benzalkoniumchloride (BAC) drops (Sigma, St. Louis, MO, USA) twice a day (8 a.m. and 4 p.m.). Before the BAC treatment, the control group (baseline, naive) underwent standard dry eye clinical tests such as the Schirmer tear test (STT), TBUT, and corneal staining score (CSS) test. After the BAC treatment, the induction of dry eye syndrome was confirmed, and the test substance was administered for 10 days while maintaining the induction of dry eye syndrome. […] The test substance was locally applied bis in die (BID) to both eyes.
The subjects were evaluated by corneal staining, and the abnormal findings of the eyelids, cornea, and conjunctiva were recorded. After dropping 1 μL of the 1% fluorescent dye solution and washing with saline solution, and the cornea was observed under a slit-lamp microscope and scored to evaluate the degree of epithelial damage (degree of fluorescent staining).

[6] = Viscosity of eye drops by rotational rheometer; format: physicochemical; conditions: shear rate 100 (1/s)
Excerpt: Based on the above information, sodium hyaluronate was set as the viscosity reagent.

[7] = rabbit, 0.1% group, Baseline (before BAC treatment)
[8] = rabbit, 0.1% group, Day 0 (EDE), before treatment
[9] = rabbit, 0.2% group, Baseline (before BAC treatment)
[10] = rabbit, 0.2% group, Day 0 (EDE), before treatment
[11] = rabbit, 0.4% group, Baseline (before BAC treatment)
[12] = rabbit, 0.4% group, Day 0 (EDE), before treatment

NH2-Tyr-Tyr-Phe-Ala-Tyr-His-Pro-Asn-Ile-Pro-Gly-Leu-Tyr-Tyr-Phe-COOH (H-YYFAYHPNIPGLYYF-OH; also: PEGylated, site not given here (mPEG), acetate salt) [(PEG)-BHD1028]
MPE (mean photo effect) (BALB/3T3 clone A31 cells): 0.003 | PIF (photo irradiation factor) (BALB/3T3 clone A31 cells): 1.000 | phototoxicity classification by PIF and MPE (BALB/3T3 clone A31 cells): non-phototoxic | IC50 UV (+Irr) (BALB/3T3 clone A31 cells; BALB/3T3 clone A31 cells, UVA 365 nm irradiation, neutral red): >1000 µg/mL | IC50 UV (−Irr) (BALB/3T3 clone A31 cells; BALB/3T3 clone A31 cells, without UV irradiation, neutral red): >1000 µg/mL | antiapoptotic effect (TUNEL) in the cornea and conjunctiva [1]: dose-dependent antiapoptotic effect | Residual amount ([2]; PBS (pH 7.4), Day 0): 100.0% | Residual amount ([2]; PBS (pH 7.4), Day 1): 97.1% | Residual amount ([2]; PBS (pH 7.4), Day 3): 92.3% | Residual amount ([2]; PBS (pH 7.4), Day 7): 89.9% | Residual amount ([2]; pH 5.5, Day 0): 100.0% | Residual amount ([2]; pH 5.5, Day 1): 98.4% | Residual amount ([2]; pH 5.5, Day 3): 97.2% | Residual amount ([2]; pH 5.5, Day 7): 96.6% | Residual amount ([2]; pH 6.0, Day 0): 100.0% | Residual amount ([2]; pH 6.0, Day 1): 99.8% | Residual amount ([2]; pH 6.0, Day 3): 99.0% | Residual amount ([2]; pH 6.0, Day 7): 98.1% | Residual amount ([2]; pH 6.5, Day 0): 100.0% | Residual amount ([2]; pH 6.5, Day 1): 99.7% | Residual amount ([2]; pH 6.5, Day 3): 98.7% | Residual amount ([2]; pH 6.5, Day 7): 97.3% | Residual amount ([2]; pH 7.0, Day 0): 100.0% | Residual amount ([2]; pH 7.0, Day 1): 99.2% | Residual amount ([2]; pH 7.0, Day 3): 98.7% | Residual amount ([2]; pH 7.0, Day 7): 94.9% | most stable pH within the pH range of normal tears ([2]; pH range 6.5 to 7.6): 6.5 | osmotic pressure, Mean ([3]; 0.5%): 300.33 mOsm/kg | osmotic pressure, single measurements #1-#3 ([3]; 0.5%): 299 mOsm/kg and 301 mOsm/kg | osmotic pressure, Mean ([3]; 1.5%): 308.67 mOsm/kg | osmotic pressure, single measurements #1-#3 ([3]; 1.5%): 310 mOsm/kg and 309 mOsm/kg and 307 mOsm/kg | osmotic pressure, Mean ([3]; 4.5%): 335.00 mOsm/kg | osmotic pressure, single measurements #1-#3 ([3]; 4.5%): 335 mOsm/kg | TBUT (rabbit DED model [4]; rabbit DED, 0.1% BID, Day 5): 10.64 ± 0.99 s | TBUT (rabbit DED model [4]; rabbit DED, 0.1% BID, Day 10): 17.88 ± 1.91 s | TBUT (rabbit DED model [4]; rabbit DED, 0.2% BID, Day 5): 15.68 ± 1.58 s | TBUT (rabbit DED model [4]; rabbit DED, 0.2% BID, Day 10): 17.72 ± 1.74 s | TBUT (rabbit DED model [4]; rabbit DED, 0.4% BID, Day 5): 19.88 ± 1.42 s | TBUT (rabbit DED model [4]; rabbit DED, 0.4% BID, Day 10): 22.71 ± 1.87 s | TBUT (rabbit DED model [4]; [7]): 49.67 ± 3.17 s | TBUT (rabbit DED model [4]; [8]): 8.50 ± 1.0 s | TBUT (rabbit DED model [4]; [9]): 49.83 ± 2.10 s | TBUT (rabbit DED model [4]; [10]): 8.89 ± 1.34 s | TBUT (rabbit DED model [4]; [11]): 53.00 ± 2.29 s | TBUT (rabbit DED model [4]; [12]): 8.22 ± 1.16 s | CFS (rabbit DED model [5]; rabbit DED, 0.1% BID, Day 5): 7.17 ± 1.21 score | CFS (rabbit DED model [5]; rabbit DED, 0.1% BID, Day 10): 6.67 ± 0.56 score | CFS (rabbit DED model [5]; rabbit DED, 0.2% BID, Day 5): 6.83 ± 0.64 score | CFS (rabbit DED model [5]; rabbit DED, 0.2% BID, Day 10): 6.17 ± 0.55 score | CFS (rabbit DED model [5]; rabbit DED, 0.4% BID, Day 5): 5.67 ± 0.38 score | CFS (rabbit DED model [5]; rabbit DED, 0.4% BID, Day 10): 3.83 ± 0.64 score | CFS (rabbit DED model [5]; [7]): 0.00 ± 0.00 score | CFS (rabbit DED model [5]; [8]): 6.67 ± 0.30 score | CFS (rabbit DED model [5]; [9]): 0.00 ± 0.00 score | CFS (rabbit DED model [5]; [10]): 9.17 ± 0.37 score | dynamic slope of the CFS score change (rabbit DED model [5]; rabbit, 0.2%): −0.42 | CFS (rabbit DED model [5]; [11]): 0.00 ± 0.00 score | CFS (rabbit DED model [5]; [12]): 8.00 ± 0.62 score | mean CFS score lower than that of the 0.05% cyclosporine treated animals (rabbit DED model [5]; rabbit, 0.4%, Day 10, p=0.0558): approximately 46% | dynamic slope of the CFS score change (rabbit DED model [5]; rabbit, 0.4%): −0.33 | viscosity, Test result ([6]; concentration 0.5%): 0.009 Pa · S | viscosity, Test result ([6]; concentration 1.5%): 0.010 Pa · S | viscosity, Test result ([6]; concentration 4.5%): 0.014 Pa · S
